Data published in patent CN114790240A (UNIV ZHENGZHOU; UNIV HENAN AGRICULTURAL, dated 2022).

Columns and labels:
[1] = target: SARS-CoV-2突变株B.1.617.2株假病毒 (刺突蛋白) (SARS-CoV-2); assay: cell-based or functional assay
[2] = target: SARS-CoV-2突变株B.1.1.529株假病毒 (刺突蛋白) (SARS-CoV-2); assay: cell-based or functional assay

B1: 单克隆抗体9D4 (antibody, V domains shown)
VH: QVHLQQSGPELVKPGASVKISCKSSGYALTDYYINWVKQRPGQGLEWIGWIFPGNDYTYFNEKFKDKATLTLDKSSRTAYMLLSSLTTEDSAVYFCARYGDGNYVYFDYWGQGTSLTVSS
VL: ETVLIQSPALMAASPGEKVTITCSVSSSISSSNLHWYQQKSGNSPKPWIYGTSNLASGVPVRFSGSGSGTSYSLTISSMEAEDAATYYCQQWSSYPLTFGAGTKLELK
[1]
  假病毒中和活性IC50: 155 ng/mL
[2]
  假病毒中和活性IC50: 188 ng/mL

B2: 单克隆抗体8H9 (antibody, V domains shown)
VH: QIQLVQSGPELKKPGETVKISCKASGYTFTTYGMSWVKQTPGKGLKWMGWINTYSGVPTYADDFKGRFAFSLETSASTASLQINNLKNEDTATYFCARYDPTAPDYAMDYWGQGTSVTVSS
VL: NIVMTQSPKSMSMSVGERVTLSCKASENVGTYVSWYQQKPEQSPKLLIYGASNRYTGVPDRFTGSGSATDFTLTISSVQAEDLADYHCGQSYIYPLTFGAGTNLELK
[1]
  假病毒中和活性IC50: 56.6 ng/mL
[2]
  假病毒中和活性IC50: 92.9 ng/mL
